Reference: US20160287713A1 (CALIFORNIA INSTITUTE FOR BIOMEDICAL RESEARCH, published 2016)
Where a chain is given by its changes, count along the chain named. Names may count otherwise. Where no end group is shown, it is not given here. The star is where a group is joined. FA1 = tetradecanamide (myristoyl) lipid attached through an ethoxy-ethoxy-ethyl acetamide linker, made from Br-FA1, N-(2-(2-(2-(2-bromoacetamido)ethoxy)ethoxy)ethyl)tetradecanamide, CCCCCCCCCCCCCC(=O)NCCOCCOCCNC(=O)C*; FA2 = not defined here; FA3 = not defined here

T1: LGR7 (UniProt Q9HBX9 1-757, limits assumed)
T1 sequence (looked up): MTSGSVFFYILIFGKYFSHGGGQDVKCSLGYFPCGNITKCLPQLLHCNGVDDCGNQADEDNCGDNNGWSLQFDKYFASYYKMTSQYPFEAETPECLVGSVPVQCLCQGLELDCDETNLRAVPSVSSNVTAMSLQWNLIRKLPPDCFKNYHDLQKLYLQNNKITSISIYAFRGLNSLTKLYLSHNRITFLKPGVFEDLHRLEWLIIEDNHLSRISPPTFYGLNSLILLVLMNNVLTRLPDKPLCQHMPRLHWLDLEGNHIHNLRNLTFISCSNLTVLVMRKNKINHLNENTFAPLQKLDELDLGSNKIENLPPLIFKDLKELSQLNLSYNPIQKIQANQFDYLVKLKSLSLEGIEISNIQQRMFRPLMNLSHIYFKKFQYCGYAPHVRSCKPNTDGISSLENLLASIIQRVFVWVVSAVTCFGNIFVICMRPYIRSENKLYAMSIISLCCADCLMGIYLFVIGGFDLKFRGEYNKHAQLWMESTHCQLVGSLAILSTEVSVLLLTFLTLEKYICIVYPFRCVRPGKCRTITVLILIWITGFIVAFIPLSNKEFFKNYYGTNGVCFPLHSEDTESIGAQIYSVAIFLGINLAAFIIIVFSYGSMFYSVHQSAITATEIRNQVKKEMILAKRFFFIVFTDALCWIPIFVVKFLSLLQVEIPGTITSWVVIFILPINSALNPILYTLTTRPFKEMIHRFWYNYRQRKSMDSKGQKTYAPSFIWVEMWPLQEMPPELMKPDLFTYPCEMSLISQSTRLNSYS

B1: Pro-Relaxin-B-D1A (ligand)
chain: MIEEGRDSWMEEVIKLCGRELVRAQIAICGMSTWSKRKPTGYGSRKKRQLYSALANKCCHVGCTKRSLARFC
B2: Relaxin-B-D1A, A-Q1C-FA2 (ligand)
chain 1: ASWMEEVIKLCGRELVRAQIAICGMSTWS
chain 2: C(FA2)LYSALANKCCHVGCTKRSLARFC
modifications: ends and bridges not checked; also: A and B chains disulfide-linked, pairing not given here
B3: Relaxin-B-D1A, A-R18C-FA1 (ligand)
chain 1: ASWMEEVIKLCGRELVRAQIAICGMSTWS
chain 2: QLYSALANKCCHVGCTKC(FA1)SLARFC
modifications: ends and bridges not checked; also: A and B chains disulfide-linked, pairing not given here
B4: Relaxin-B-D1AM25KM4K, A-Q1AH12K, B-S29C-FA1 (ligand)
chain 1: ASWKEEVIKLCGRELVRAQIAICGKSTWC(FA1)
chain 2: ALYSALANKCCKVGCTKRSLARFC
modifications: ends and bridges not checked; also: A and B chains disulfide-linked, pairing not given here
B5: Relaxin-B-D1A, A-A5C-FA3 (ligand)
chain 1: ASWMEEVIKLCGRELVRAQIAICGMSTWS
chain 2: QLYSC(FA3)LANKCCHVGCTKRSLARFC
modifications: ends and bridges not checked; also: A and B chains disulfide-linked, pairing not given here
B6: Relaxin-B-D1AM4KS29C-FA2 (ligand)
chain 1: ASWKEEVIKLCGRELVRAQIAICGMSTWC
chain 2: QLYSALANKCCHVGCTKRSLARFC
modifications: ends and bridges not checked; also: lipid conjugate FA2, site not given here
B7: Relaxin-B-D1AM25KM4K, A-Q1AH12K, B-S29C-FA2 (ligand)
chain 1: ASWKEEVIKLCGRELVRAQIAICGKSTWC(FA2)
chain 2: ALYSALANKCCKVGCTKRSLARFC
modifications: ends and bridges not checked; also: A and B chains disulfide-linked, pairing not given here
B8: Relaxin-B-D1A, A-Q1C-FA3 (ligand)
chain 1: ASWMEEVIKLCGRELVRAQIAICGMSTWS
chain 2: C(FA3)LYSALANKCCHVGCTKRSLARFC
modifications: ends and bridges not checked; also: A and B chains disulfide-linked, pairing not given here
B9: Relaxin-B-D1A (ligand)
chain 1: ASWMEEVIKLCGRELVRAQIAICGMSTWS
chain 2: QLYSALANKCCHVGCTKRSLARFC
modifications: ends and bridges not checked; cysteine pairing not given here
B10: Relaxin-B-D1AM25KM4K, A-Q1AH12K, B-S29C-FA3 (ligand)
chain 1: ASWKEEVIKLCGRELVRAQIAICGKSTWC(FA3)
chain 2: ALYSALANKCCKVGCTKRSLARFC
modifications: ends and bridges not checked; also: A and B chains disulfide-linked, pairing not given here
B11: Relaxin-A-H12K, B-D1AS29C-FA2 (ligand)
chain 1: ASWMEEVIKLCGRELVRAQIAICGMSTWC(FA2)
chain 2: QLYSALANKCCKVGCTKRSLARFC
modifications: ends and bridges not checked; also: A and B chains disulfide-linked, pairing not given here
B12: Relaxin-B-D1AS29C-XTEN288 (ligand)
chain 1: ASWMEEVIKLCGRELVRAQIAICGMSTWC
chain 2: QLYSALANKCCHVGCTKRSLARFC
chain 3: SAGSPTGPGSEPATSGSETPGTSESATPESGPGSEPATSGSETPGTSESATPESGPGTSTEPSEGSAPGSPAGSPTSTEEGTSESATPESGPGSEPATSGSETPGTSESATPESGPGSPAGSPTSTEEGSPAGSPTSTEEGTSTEPSEGSAPGTSESATPESGPGTSESATPESGPGTSESATPESGPGSEPATSGSETPGSEPATSGSETPGSPAGSPTSTEEGTSTEPSEGSAPGTSTEPSEGSAPGSEPATSGSETPGTSESATPESGPGTSTEPSEGSAPSASR
B13: Relaxin-B-D1AM25KS29C-FA2 (ligand)
chain 1: ASWMEEVIKLCGRELVRAQIAICGKSTWC
chain 2: QLYSALANKCCHVGCTKRSLARFC
modifications: ends and bridges not checked; also: lipid conjugate FA2, site not given here
B14: Relaxin-B-D1A, A-A5C-FA2 (ligand)
chain 1: ASWMEEVIKLCGRELVRAQIAICGMSTWS
chain 2: QLYSC(FA2)LANKCCHVGCTKRSLARFC
modifications: ends and bridges not checked; also: A and B chains disulfide-linked, pairing not given here
B15: Relaxin-B-D1A, A-Q1C-FA1 (ligand)
chain 1: ASWMEEVIKLCGRELVRAQIAICGMSTWS
chain 2: C(FA1)LYSALANKCCHVGCTKRSLARFC
modifications: ends and bridges not checked; also: A and B chains disulfide-linked, pairing not given here
B16: Relaxin-B-D1A, A-R18C-FA2 (ligand)
chain 1: ASWMEEVIKLCGRELVRAQIAICGMSTWS
chain 2: QLYSALANKCCHVGCTKC(FA2)SLARFC
modifications: ends and bridges not checked; also: A and B chains disulfide-linked, pairing not given here
B17: Relaxin-B-D1A, A-R18C-FA3 (ligand)
chain 1: ASWMEEVIKLCGRELVRAQIAICGMSTWS
chain 2: QLYSALANKCCHVGCTKC(FA3)SLARFC
modifications: ends and bridges not checked; also: A and B chains disulfide-linked, pairing not given here
B18: Tev-Relaxin-single-chain (ligand)
chain: HHHHHHHHENLYFQGSGGDSWMEEVIKLCGRELVRAQIAICGMSTWSGGGRGGRQLYSALANKCCHVGCTKRSLARFC
B19: Tev-Relaxin-B-S29C-FA1-single-chain (ligand)
chain: B18 chain with S47C
modifications: lipid FA1 on the Cys at B-chain position 29 (from Br-FA1, Example 5)
B20: Tev-Relaxin-B-S29C-single-chain (ligand)
chain: B18 chain with S47C
B21: Tev-Relaxin-C chain (ligand)
chain: HHHHHHHHENLYFQGSGGDSWMEEVIKLCGRELVRAQIAICGMSTWSKRSLSQEDAPQTPRPVAEIVPSFINKDTETINMMSEFVANLPQELKLTLSEMQPALPQLQQHVPVLKDSSLLFEEFKKLIRNRQSEAADSSPSELKYLGLDTHSRKKRQLYSALANKCCHVGCTKRSLARFC
B22: Tev-Relaxin-B-S29C-FA1-C-Chain (ligand)
chain: B21 chain with S47C
modifications: lipid FA1 on the Cys at B-chain position 29 (from Br-FA1, Example 5)
B23: GSGG-Relaxin-single-chain (ligand)
chain: GSGGDSWMEEVIKLCGRELVRAQIAICGMSTWSGGGRGGRQLYSALANKCCHVGCTKRSLARFC
B24: Tev-Relaxin (ligand)
chain 1: HHHHHHHHENLYFQSGGDSWMEEVIKLCGRELVRAQIAICGMSTWS
chain 2: QLYSALANKCCHVGCTKRSLARFC

biological target: T1, LGR7; test: cell-based or functional assay

B1 was tested. Which “Activity, fold drop compared to relaxin” value did it give?
The value was 10 fold.

With B2 as the binder, how does the “Activity, fold drop compared to relaxin” value read?
Its value is 15 fold.

How did the “Activity, fold drop compared to relaxin” value turn out when B3 was run?
Its value is 15 fold.

B4 was tested. Which “Activity, fold drop compared to relaxin” value did it give?
The value was 25 fold.

How did the “Activity, fold drop compared to relaxin” value turn out when B5 was run?
The value was 15 fold.

With B6 as the binder, how does the “Activity, fold drop compared to relaxin” value read?
Its value is 40 fold.

B7 was tested. Which “Activity, fold drop compared to relaxin” value did it give?
The value was 150 fold.

B8 was tested. Which “Activity, fold drop compared to relaxin” value did it give?
Its value is 25 fold.

With B9 as the binder, how does the “Activity, fold drop compared to relaxin” value read?
The value was 0 fold.

For B10, which “Activity, fold drop compared to relaxin” value is on record?
Its value is 150 fold.

With B11 as the binder, how does the “Activity, fold drop compared to relaxin” value read?
Its value is 16 fold.

With B12 as the binder, how does the “Activity, fold drop compared to relaxin” value read?
Its value is 20 fold.

Which “Activity, fold drop compared to relaxin” value does the source give for B13 here?
Its value is 48 fold.

How did the “Activity, fold drop compared to relaxin” value turn out when B14 was run?
Its value is 25 fold.

How did the “Activity, fold drop compared to relaxin” value turn out when B15 was run?
The value was 10 fold.

With B16 as the binder, how does the “Activity, fold drop compared to relaxin” value read?
The value was 30 fold.

With B17 as the binder, how does the “Activity, fold drop compared to relaxin” value read?
The value was 30 fold.

biological target: T1, LGR7; test: cell-based or functional assay; remark: another data set of the same source

For B18, which “Activity” value is on record?
The value was 14 nM.

How did the “Activity” value turn out when B19 was run?
Its value is 29 nM.

For B20, which “Activity” value is on record?
The value was 11 nM.

How did the “Activity” value turn out when B21 was run?
The value was 6 nM.

For B22, which “Activity” value is on record?
The value was 21 nM.

With B23 as the binder, how does the “Activity” value read?
The value was 1 nM.

With B24 as the binder, how does the “Activity” value read?
The value was 2 nM.
